± gives the uncertainty stated by the source.
B1: Zinc finger homeobox protein 3, residues 2147 to 2202; numbered along this chain, Q15911 (parent)
chain: RPRTRITDDQLRVLRQYFDINNSPSEEQIKEMADKSGLPQKVIKHWFRNTLFKERQ

Variants of: B1
Experiment: abundance fitness (aPCA) (normalised: wild type 0, dead -1); higher = more abundant; growth selection in yeast, the domain comes from the species named
Conditions: Homo sapiens

Variant	abundance fitness
RPRTRITDDQLRVLRQYFDINNSPSEEQIKEMADKHGLPQKVIKHWFRNTLFKERQ [S36H]	-0.057 ± 0.12
RPRTRITDAQLRVLRQYFDINNSPSEEQIKEMADKSGLPQKVIKHWFRNTLFKERQ [D9A]	0.088 ± 0.078
RPRTRITDFQLRVLRQYFDINNSPSEEQIKEMADKSGLPQKVIKHWFRNTLFKERQ [D9F]	-0.013 ± 0.13
RPRTRITDWQLRVLRQYFDINNSPSEEQIKEMADKSGLPQKVIKHWFRNTLFKERQ [D9W]	-0.171 ± 0.078
RPRTRITDDQLRVLRQYFDINNSPSEEQICEMADKSGLPQKVIKHWFRNTLFKERQ [K30C]	-0.217 ± 0.12
RPRTSITDDQLRVLRQYFDINNSPSEEQIKEMADKSGLPQKVIKHWFRNTLFKERQ [R5S]	0.088 ± 0.065
RPRTRITDDQLRVLRQYFDINNSPSQEQIKEMADKSGLPQKVIKHWFRNTLFKERQ [E26Q]	0.171 ± 0.098
RPRTRITDDQLRVLRQYFDINNSGSEEQIKEMADKSGLPQKVIKHWFRNTLFKERQ [P24G]	-0.685 ± 0.074
RPRTRITDDQLRVLRQYFDINNSNSEEQIKEMADKSGLPQKVIKHWFRNTLFKERQ [P24N]	-0.873 ± 0.18
RPRTRITDDQLRVLRQYFDINNSPSEEQIKEMADKSMLPQKVIKHWFRNTLFKERQ [G37M]	-0.341 ± 0.12
RPRTRITDDQLRVLRQYFLINNSPSEEQIKEMADKSGLPQKVIKHWFRNTLFKERQ [D19L]	0.032 ± 0.075
RPRTRITDDQLRVLRQYFPINNSPSEEQIKEMADKSGLPQKVIKHWFRNTLFKERQ [D19P]	-0.336 ± 0.11
RPRTRITDDQLRVLRQYFDINNSPSEEQIKEMADKSGLPQKAIKHWFRNTLFKERQ [V42A]	-0.098 ± 0.11
RPRTRITDDQLRVLRQYFDINNSPSEEQIKEMADKSGLPQKWIKHWFRNTLFKERQ [V42W]	-0.119 ± 0.095
RPRTRIRDDQLRVLRQYFDINNSPSEEQIKEMADKSGLPQKVIKHWFRNTLFKERQ [T7R]	-0.174 ± 0.067
RPRTRITDDQLRVLRQYFDINNSPSEEQIKEMADKSGLPQKVIKHWFRNTLFLERQ [K53L]	-0.163 ± 0.085
RPRTRITDDQLRVLRQYFDINNSPSEEQIKEMADKSGLPQKVIKHWFRNTLFSERQ [K53S]	-0.056 ± 0.089
RPRTRITDDQLRVLRQYFDINNSPSEEQIKEMADKSGLPQKVIKHWFRNTLFIERQ [K53I]	-0.124 ± 0.17
RPRTRITDDQLRVLRQYFDINNSPSEEQIKEMADKSGNPQKVIKHWFRNTLFKERQ [L38N]	-1.15 ± 0.28
RPRTRITDDQLRVLRQYFDINNSPSEEQIKEMADKSGLPQKVIKHCFRNTLFKERQ [W46C]	-0.524 ± 0.14
RPRTRITDDQLRVLRQYFDINNSPSEEQIKEMADKSGLPQKVIKHWFRNTLDKERQ [F52D]	-0.098 ± 0.2
RPRTRITDDQLRVLYQYFDINNSPSEEQIKEMADKSGLPQKVIKHWFRNTLFKERQ [R15Y]	-0.127 ± 0.13
RPRTRITDDQLRVDRQYFDINNSPSEEQIKEMADKSGLPQKVIKHWFRNTLFKERQ [L14D]	-0.932 ± 0.16
RPRTRITDDQLRVERQYFDINNSPSEEQIKEMADKSGLPQKVIKHWFRNTLFKERQ [L14E]	-0.947 ± 0.12

Variant	abundance fitness
RPRTRITDDQLLVLRQYFDINNSPSEEQIKEMADKSGLPQKVIKHWFRNTLFKERQ [R12L]	-0.085 ± 0.064
RPRTRITDDQLRVLRQYFDINNSPSEEQIKEMADKSGLGQKVIKHWFRNTLFKERQ [P39G]	-0.016 ± 0.068
RPRTRITDDQLRVLRQYFDINNSPSEEQIKEMASKSGLPQKVIKHWFRNTLFKERQ [D34S]	-0.002 ± 0.078
RPRTRITDDQLRVLRQYLDINNSPSEEQIKEMADKSGLPQKVIKHWFRNTLFKERQ [F18L]	-0.137 ± 0.072
RPRTRITDDQLRVLRQYFDINNSPSEEQIKEMADKSGLPQKVIKHWFRFTLFKERQ [N49F]	-0.194 ± 0.16
RIRTRITDDQLRVLRQYFDINNSPSEEQIKEMADKSGLPQKVIKHWFRNTLFKERQ [P2I]	0.105 ± 0.15
RLRTRITDDQLRVLRQYFDINNSPSEEQIKEMADKSGLPQKVIKHWFRNTLFKERQ [P2L]	0.086 ± 0.096
RPRTRITDDQLRVLRQYFDINNSPSEEQIKEMADKSGLPTKVIKHWFRNTLFKERQ [Q40T]	0.054 ± 0.099
RPRTRITDDQLRVLRQYFDINNSPSEEQIKEMADKSGLPHKVIKHWFRNTLFKERQ [Q40H]	0.025 ± 0.18
RPRTRITDDQLRVLRQYFDINNSPSEEQIKEMADKSGLPQKVIKHWFRNFLFKERQ [T50F]	-0.341 ± 0.2
RPRTRITDDQLRVLRQYFDINNSPSEEQIKEMADKSGLPQKVIKHWFRNQLFKERQ [T50Q]	-0.16 ± 0.19
RPRTRITDDQLRVLRQYFDINNSPSEEQIKEMADKSGLPQRVIKHWFRNTLFKERQ [K41R]	-0.142 ± 0.083
RPRTRITDDQLRVLRQYFDINNSPSEEQIKEMADKSGLPQAVIKHWFRNTLFKERQ [K41A]	-0.056 ± 0.12
RPRTRITDDQLRVLRQYFDINNSPSEEQIKEMADKSGLPQPVIKHWFRNTLFKERQ [K41P]	-0.259 ± 0.12
RPRTRITDDILRVLRQYFDINNSPSEEQIKEMADKSGLPQKVIKHWFRNTLFKERQ [Q10I]	-0.464 ± 0.14
RPRTRITDDQLRVLRQYFDINNSPSEEGIKEMADKSGLPQKVIKHWFRNTLFKERQ [Q28G]	-0.209 ± 0.066
RPRTRITDDQLRVLRQYFDINNSPSEDQIKEMADKSGLPQKVIKHWFRNTLFKERQ [E27D]	0.075 ± 0.1
GPRTRITDDQLRVLRQYFDINNSPSEEQIKEMADKSGLPQKVIKHWFRNTLFKERQ [R1G]	-0.247 ± 0.091
TPRTRITDDQLRVLRQYFDINNSPSEEQIKEMADKSGLPQKVIKHWFRNTLFKERQ [R1T]	-0.271 ± 0.16
RPRTRITDDQLRVLRQYFDINNSPSEEQIKEMNDKSGLPQKVIKHWFRNTLFKERQ [A33N]	-0.21 ± 0.25
RPRTRITDDQLRVLRQYFDIDNSPSEEQIKEMADKSGLPQKVIKHWFRNTLFKERQ [N21D]	-0.102 ± 0.13
RPRTRITDDQLRVLRQYFDISNSPSEEQIKEMADKSGLPQKVIKHWFRNTLFKERQ [N21S]	-0.013 ± 0.084
RPRTRITDDQLRVLRQYFDINNSPSEEQIKEMADKSGLPQKVTKHWFRNTLFKERQ [I43T]	-0.54 ± 0.13

Reference: the Human Domainome abundance scans (Beltran et al. 2025)
